Patent US20110105397A1, “METHOD FOR TREATING HEART FAILURE WITH STRESSCOPIN-LIKE PEPTIDES” (priority 2009, published 2011)
Where no end group is shown, it is not given here.

Target: T1, human corticotrophin releasing hormone receptor type 2 (CRHR2) (human, UniProt Q13324 1-411)
T1 sequence (looked up): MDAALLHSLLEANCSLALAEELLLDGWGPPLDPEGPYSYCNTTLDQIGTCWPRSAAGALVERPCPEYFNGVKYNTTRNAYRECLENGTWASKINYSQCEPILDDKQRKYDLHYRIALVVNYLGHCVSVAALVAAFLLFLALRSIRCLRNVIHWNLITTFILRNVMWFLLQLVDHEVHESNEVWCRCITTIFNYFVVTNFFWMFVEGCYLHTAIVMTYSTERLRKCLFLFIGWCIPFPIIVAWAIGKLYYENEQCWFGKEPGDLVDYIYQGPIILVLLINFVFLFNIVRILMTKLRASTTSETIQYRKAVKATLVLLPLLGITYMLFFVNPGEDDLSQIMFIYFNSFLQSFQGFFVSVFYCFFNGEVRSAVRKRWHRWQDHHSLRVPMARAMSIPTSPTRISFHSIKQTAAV
Experiment: cell-based or functional assay

TKFTLSLDVPTNIMNLCFNIAKAKNLRAQAAANAHLMAQI (NES-PEG (about 20 kDa) on Cys 17; C-terminal amide (-NH2)) [Pegylated Cys-variant stresscopin-like peptide with NES linker and PEG about 20 kDa SEQ ID NO: 71]
Log DR: ~2.26 log10
pA50: ~7.35 -log10(M)

TKFTLSLDVPTNIMNLLCNIAKAKNLRAQAAANAHLMAQI-NH2 [Cys-variant stresscopin-like peptide SEQ ID NO: 19]
Log DR: 1.67 log10
pA50: 8.01 -log10(M)

TKFTLSLDVPTNIMNLLCNIAKAKNLRAQAAANAHLMAQI (NES-PEG (about 20 kDa) on Cys 18; C-terminal amide (-NH2)) [Pegylated Cys-variant stresscopin-like peptide with NES linker and PEG about 20 kDa SEQ ID NO: 72]
Log DR: 1.5 log10
pA50: 8.04 -log10(M)

TKFTLSLDVPTNIMNLLFCIAKAKNLRAQAAANAHLMAQI-NH2 [Cys-variant stresscopin-like peptide SEQ ID NO: 20]
Log DR: 0.52 log10
pA50: 9 -log10(M)

TKFTLSLDVPTNIMNLLFCIAKAKNLRAQAAANAHLMAQI (NES-PEG (about 20 kDa) on Cys 19; C-terminal amide (-NH2)) [Pegylated Cys-variant stresscopin-like peptide with NES linker and PEG about 20 kDa SEQ ID NO: 73]
Log DR: 1.11 log10
pA50: 8.29 -log10(M)

TKFTLSLDVPTNIMNLLFNCAKAKNLRAQAAANAHLMAQI-NH2 [Cys-variant stresscopin-like peptide SEQ ID NO: 21]
Log DR: 0.77 log10
pA50: 8.75 -log10(M)

TKFTLSLDVPTNIMNLLFNCAKAKNLRAQAAANAHLMAQI (NES-PEG (about 20 kDa) on Cys 20; C-terminal amide (-NH2)) [Pegylated Cys-variant stresscopin-like peptide with NES linker and PEG about 20 kDa SEQ ID NO: 74]
Log DR: ~2.28 log10
pA50: ~7.33 -log10(M)

TKFTLSLDVPTNIMNLLFNICKAKNLRAQAAANAHLMAQI-NH2 [Cys-variant stresscopin-like peptide SEQ ID NO: 22]
Log DR: 0.52 log10
pA50: 9.17 -log10(M)

TKFTLSLDVPTNIMNLLFNICKAKNLRAQAAANAHLMAQI (NES-PEG (about 20 kDa) on Cys 21; C-terminal amide (-NH2)) [Pegylated Cys-variant stresscopin-like peptide with NES linker and PEG about 20 kDa SEQ ID NO: 75]
Log DR: 1.3 log10
pA50: 8.24 -log10(M)

TKFTLSLDVPTNIMNLLFNIACAKNLRAQAAANAHLMAQI-NH2 [Cys-variant stresscopin-like peptide SEQ ID NO: 23]
Log DR: 1.13 log10
pA50: 8.55 -log10(M)

TKFTLSLDVPTNIMNLLFNIACAKNLRAQAAANAHLMAQI (NES-PEG (about 20 kDa) on Cys 22; C-terminal amide (-NH2)) [Pegylated Cys-variant stresscopin-like peptide with NES linker and PEG about 20 kDa SEQ ID NO: 76]
Log DR: 2.7 log10
pA50: 6.84 -log10(M)

TKFTLSLDVPTNIMNLLFNIAKCKNLRAQAAANAHLMAQI-NH2 [Cys-variant stresscopin-like peptide SEQ ID NO: 24]
Log DR: 0.74 log10
pA50: 8.94 -log10(M)

TKFTLSLDVPTNIMNLLFNIAKCKNLRAQAAANAHLMAQI (NES-PEG (about 20 kDa) on Cys 23; C-terminal amide (-NH2)) [Pegylated Cys-variant stresscopin-like peptide with NES linker and PEG about 20 kDa SEQ ID NO: 77]
Log DR: 1.27 log10
pA50: 8.27 -log10(M)

TKFTLSLDVPTNIMNLLFNIAKACNLRAQAAANAHLMAQI-NH2 [Cys-variant stresscopin-like peptide SEQ ID NO: 25]
Log DR: 0.35 log10
pA50: 9.17 -log10(M)

TKFTLSLDVPTNIMNLLFNIAKACNLRAQAAANAHLMAQI (NES-PEG (about 20 kDa) on Cys 24; C-terminal amide (-NH2)) [Pegylated Cys-variant stresscopin-like peptide with NES linker and PEG about 20 kDa SEQ ID NO: 78]
Log DR: ~1.52 log10
pA50: ~7.89 -log10(M)

TKFTLSLDVPTNIMNLLFNIAKAKCLRAQAAANAHLMAQI-NH2 [Cys-variant stresscopin-like peptide SEQ ID NO: 26]
Log DR: 0.08 log10
pA50: 9.44 -log10(M)

TKFTLSLDVPTNIMNLLFNIAKAKCLRAQAAANAHLMAQI (NES-PEG (about 20 kDa) on Cys 25; C-terminal amide (-NH2)) [Pegylated Cys-variant stresscopin-like peptide with NES linker and PEG about 20 kDa SEQ ID NO: 79]
Log DR: 1.11 log10
pA50: 8.5 -log10(M)

TKFTLSLDVPTNIMNLLFNIAKAKNCRAQAAANAHLMAQI-NH2 [Cys-variant stresscopin-like peptide SEQ ID NO: 27]
Log DR: 0.76 log10
pA50: 8.76 -log10(M)

TKFTLSLDVPTNIMNLLFNIAKAKNCRAQAAANAHLMAQI (NES-PEG (about 20 kDa) on Cys 26; C-terminal amide (-NH2)) [Pegylated Cys-variant stresscopin-like peptide with NES linker and PEG about 20 kDa SEQ ID NO: 80]
Log DR: 1.75 log10
pA50: 7.6 -log10(M)

TKFTLSLDVPTNIMNLLFNIAKAKNLCAQAAANAHLMAQI-NH2 [Cys-variant stresscopin-like peptide SEQ ID NO: 28]
Log DR: 1.61 log10
pA50: 9.36 -log10(M)

TKFTLSLDVPTNIMNLLFNIAKAKNLCAQAAANAHLMAQI (NES-PEG (about 20 kDa) on Cys 27; C-terminal amide (-NH2)) [Pegylated Cys-variant stresscopin-like peptide with NES linker and PEG about 20 kDa SEQ ID NO: 81]
Log DR: 1.82 log10
pA50: 7.83 -log10(M)

TKFTLSLDVPTNIMNLLFNIAKAKNLRCQAAANAHLMAQI-NH2 [Cys-variant stresscopin-like peptide SEQ ID NO: 29]
Log DR: 0 log10
pA50: 9.47 -log10(M)

TKFTLSLDVPTNIMNLLFNIAKAKNLRCQAAANAHLMAQI (NES-PEG (about 20 kDa; MW20000) on Cys 28; C-terminal amide (-NH2)) [Pegylated Cys-variant stresscopin-like peptide with NES linker and PEG about 20 kDa SEQ ID NO: 82]
Log DR: 1.12 log10
pA50: 8.4 -log10(M)

TKFTLSLDVPTNIMNLLFNIAKAKNLRACAAANAHLMAQI-NH2 [Cys-variant stresscopin-like peptide SEQ ID NO: 30]
Log DR: 1.28 log10
pA50: 8.4 -log10(M)

TKFTLSLDVPTNIMNLLFNIAKAKNLRACAAANAHLMAQI (NES-PEG (about 20 kDa) on Cys 29; C-terminal amide (-NH2)) [Pegylated Cys-variant stresscopin-like peptide with NES linker and PEG about 20 kDa SEQ ID NO: 83]
Log DR: 1.63 log10
pA50: 7.91 -log10(M)

TKFTLSLDVPTNIMNLLFNIAKAKNLRAQCAANAHLMAQI-NH2 [Cys-variant stresscopin-like peptide SEQ ID NO: 31]
Log DR: 1.61 log10
pA50: 8.02 -log10(M)

TKFTLSLDVPTNIMNLLFNIAKAKNLRAQCAANAHLMAQI (NES-PEG (about 20 kDa) on Cys 30; C-terminal amide (-NH2)) [Pegylated Cys-variant stresscopin-like peptide with NES linker and PEG about 20 kDa SEQ ID NO: 84]
Log DR: ~2.84 log10
pA50: ~6.82 -log10(M)

TKFTLSLDVPTNIMNLLFNIAKAKNLRAQACANAHLMAQI-NH2 [Cys-variant stresscopin-like peptide SEQ ID NO: 32]
Log DR: 0.11 log10
pA50: 9.41 -log10(M)

TKFTLSLDVPTNIMNLLFNIAKAKNLRAQACANAHLMAQI (NES-PEG (about 20 kDa) on Cys 31; C-terminal amide (-NH2)) [Pegylated Cys-variant stresscopin-like peptide with NES linker and PEG about 20 kDa SEQ ID NO: 85]
Log DR: 0.89 log10
pA50: 8.51 -log10(M)

TKFTLSLDVPTNIMNLLFNIAKAKNLRAQAACNAHLMAQI-NH2 [Cys-variant stresscopin-like peptide SEQ ID NO: 33]
Log DR: 0.45 log10
pA50: 9.07 -log10(M)

TKFTLSLDVPTNIMNLLFNIAKAKNLRAQAACNAHLMAQI (NES-PEG (about 20 kDa) on Cys 32; C-terminal amide (-NH2)) [Pegylated Cys-variant stresscopin-like peptide with NES linker and PEG about 20 kDa SEQ ID NO: 86]
Log DR: 0.82 log10
pA50: 8.79 -log10(M)

TKFTLSLDVPTNIMNLLFNIAKAKNLRAQAAACAHLMAQI-NH2 [Cys-variant stresscopin-like peptide SEQ ID NO: 34]
Log DR: > 3.19 log10
pA50: ~6.32 -log10(M)

TKFTLSLDVPTNIMNLLFNIAKAKNLRAQAAACAHLMAQI (NES-PEG (about 20 kDa) on Cys 33; C-terminal amide (-NH2)) [Pegylated Cys-variant stresscopin-like peptide with NES linker and PEG about 20 kDa SEQ ID NO: 87]
Log DR: > 3.68 log10
pA50: ~6 -log10(M)

TKFTLSLDVPTNIMNLLFNIAKAKNLRAQAAANCHLMAQI-NH2 [Cys-variant stresscopin-like peptide SEQ ID NO: 35]
Log DR: 0.7 log10
pA50: 8.93 -log10(M)

TKFTLSLDVPTNIMNLLFNIAKAKNLRAQAAANCHLMAQI (NES-PEG (about 20 kDa) on Cys 34; C-terminal amide (-NH2)) [Pegylated Cys-variant stresscopin-like peptide with NES linker and PEG about 20 kDa SEQ ID NO: 88]
Log DR: 1.55 log10
pA50: 8.12 -log10(M)

TKFTLSLDVPTNIMNLLFNIAKAKNLRAQAAANACLMAQI-NH2 [Cys-variant stresscopin-like peptide SEQ ID NO: 36]
Log DR: 0.42 log10
pA50: 9.1 -log10(M)

TKFTLSLDVPTNIMNLLFNIAKAKNLRAQAAANACLMAQI (NES-PEG (about 20 kDa) on Cys 35; C-terminal amide (-NH2)) [Pegylated Cys-variant stresscopin-like peptide with NES linker and PEG about 20 kDa SEQ ID NO: 89]
Log DR: 0.98 log10
pA50: 8.48 -log10(M)

TKFTLSLDVPTNIMNLLFNIAKAKNLRAQAAANAHCMAQI-NH2 [Cys-variant stresscopin-like peptide SEQ ID NO: 37]
Log DR: 1.05 log10
pA50: 8.58 -log10(M)

TKFTLSLDVPTNIMNLLFNIAKAKNLRAQAAANAHCMAQI (NES-PEG (about 20 kDa) on Cys 36; C-terminal amide (-NH2)) [Pegylated Cys-variant stresscopin-like peptide with NES linker and PEG about 20 kDa SEQ ID NO: 90]
Log DR: ~2.17 log10
pA50: ~7.49 -log10(M)

TKFTLSLDVPTNIMNLLFNIAKAKNLRAQAAANAHLCAQI-NH2 [Cys-variant stresscopin-like peptide SEQ ID NO: 38]
Log DR: > 2.95 log10
pA50: ~6.67 -log10(M)

TKFTLSLDVPTNIMNLLFNIAKAKNLRAQAAANAHLCAQI (NES-PEG (about 20 kDa) on Cys 37; C-terminal amide (-NH2)) [Pegylated Cys-variant stresscopin-like peptide with NES linker and PEG about 20 kDa SEQ ID NO: 91]
Log DR: > 3.43 log10
pA50: ~6.23 -log10(M)

TKFTLSLDVPTNIMNLLFNIAKAKNLRAQAAANAHLMCQI-NH2 [Cys-variant stresscopin-like peptide SEQ ID NO: 39]
Log DR: 0.41 log10
pA50: 9.21 -log10(M)

TKFTLSLDVPTNIMNLLFNIAKAKNLRAQAAANAHLMCQI (NES-PEG (about 20 kDa) on Cys 38; C-terminal amide (-NH2)) [Pegylated Cys-variant stresscopin-like peptide with NES linker and PEG about 20 kDa SEQ ID NO: 92]
Log DR: 1.55 log10
pA50: 8.12 -log10(M)

TKFTLSLDVPTNIMNLLFNIAKAKNLRAQAAANAHLMACI-NH2 [Cys-variant stresscopin-like peptide SEQ ID NO: 40]
Log DR: 0.55 log10
pA50: 9.08 -log10(M)

TKFTLSLDVPTNIMNLLFNIAKAKNLRAQAAANAHLMACI (NES-PEG (about 20 kDa) on Cys 39; C-terminal amide (-NH2)) [Pegylated Cys-variant stresscopin-like peptide with NES linker and PEG about 20 kDa SEQ ID NO: 93]
Log DR: 1.47 log10
pA50: 8.2 -log10(M)

TKFTLSLDVPTNIMNLLFNIAKAKNLRAQAAANAHLMAQC-NH2 [Cys-variant stresscopin-like peptide SEQ ID NO: 41]
Log DR: 2.07 log10
pA50: 7.45 -log10(M)

TKFTLSLDVPTNIMNLLFNIAKAKNLRAQAAANAHLMAQC (NES-PEG (about 20 kDa) on Cys 40; C-terminal amide (-NH2)) [Pegylated Cys-variant stresscopin-like peptide with NES linker and PEG about 20 kDa SEQ ID NO: 94]
Log DR: > 2.39 log10
pA50: ~7 -log10(M)
